In PMC9975944 (The EMBO Journal, 2023):

Target: T1, GFP-SOX7 (UniProt Q9BT81 1-388)
T1 sequence: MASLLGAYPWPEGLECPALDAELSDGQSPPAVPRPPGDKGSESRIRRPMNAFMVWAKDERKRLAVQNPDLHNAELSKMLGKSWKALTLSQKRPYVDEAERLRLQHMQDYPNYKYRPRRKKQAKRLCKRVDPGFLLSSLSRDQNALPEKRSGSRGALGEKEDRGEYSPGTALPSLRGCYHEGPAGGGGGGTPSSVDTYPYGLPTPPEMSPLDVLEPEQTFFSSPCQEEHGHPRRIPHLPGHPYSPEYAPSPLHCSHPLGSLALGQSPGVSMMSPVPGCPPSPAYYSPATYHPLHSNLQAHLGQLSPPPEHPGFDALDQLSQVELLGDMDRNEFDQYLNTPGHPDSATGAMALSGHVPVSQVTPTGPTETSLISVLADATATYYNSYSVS
Test: single-molecule two-colour coincidence spectroscopy

B1: HEY1-Cherry (natural protein)
chain: MKRAHPEYSSSDSELDETIEVEKESADENGNLSSALGSMSPTTSSQILARKRRRGIIEKRRRDRINNSLSELRRLVPSAFEKQGSAKLEKAEILQMTVDHLKMLHTAGGKGYFDAHALAMDYRSLGFRECLAEVARYLSIIEGLDASDPLRVRLVSHLNNYASQREAASGAHAGLGHIPWGTVFGHHPHIAHPLLLPQNGHGNAGTTASPTEPHHQGRLGSAHPEAPALRAPPSGSLGPVLPVVTSASKLSPPLLSSVASLSAFPFSFGSFHLLSPNALSPSAPTQAANLGKPYRPWGTEIGAF
coincidence ratio: 0.66
